Experimental data reported in patent publication US20170363643A1.

Experiments:
[1] = target: His-tagged recombinant human SMN protein (ProteinTech, catalog # ag14333) (human) (UniProt Q16637); assay: Erenna sandwich assay, capture MABE230 12.5 µg/mg MPs; Det Ab 500 ng/mL; SMN 7.41 pg/mL
[2] = target: His-tagged recombinant human SMN protein (ProteinTech, catalog # ag14333) (human) (UniProt Q16637); assay: Erenna sandwich assay, capture MABE230 12.5 µg/mg MPs; Det Ab 1000 ng/mL; SMN 0.93 pg/mL
[3] = target: His-tagged recombinant human SMN protein (ProteinTech, catalog # ag14333) (human) (UniProt Q16637); assay: Erenna sandwich assay, capture MABE230 12.5 µg/mg MPs; Det Ab 1000 ng/mL; SMN 22.22 pg/mL
[4] = target: His-tagged recombinant human SMN protein (ProteinTech, catalog # ag14333) (human) (UniProt Q16637); assay: Erenna sandwich assay, capture MABE230 12.5 µg/mg MPs; Det Ab 500 ng/mL; SMN 0.93 pg/mL
[5] = target: His-tagged recombinant human SMN protein (ProteinTech, catalog # ag14333) (human) (UniProt Q16637); assay: Erenna sandwich assay, capture MABE230; human CSF sample 3 spiked with recombinant SMN 10.0 pg/mL (endogenous SMN also present)
[6] = target: endogenous SMN protein in human CSF (human) (UniProt Q16637); assay: Erenna sandwich assay, capture MABE230; human CSF sample 2, unspiked (endogenous SMN only)
[7] = target: His-tagged recombinant human SMN protein (ProteinTech, catalog # ag14333) (human) (UniProt Q16637); assay: Erenna sandwich assay, capture MABE230; human CSF sample 2 spiked with recombinant SMN 10.0 pg/mL (endogenous SMN also present)
[8] = target: His-tagged recombinant human SMN protein (ProteinTech, catalog # ag14333) (human) (UniProt Q16637); assay: Erenna sandwich assay, capture MABE230 12.5 µg/mg MPs; Det Ab 500 ng/mL; SMN 1.85 pg/mL
[9] = target: His-tagged recombinant human SMN protein (ProteinTech, catalog # ag14333) (human) (UniProt Q16637); assay: Erenna sandwich assay, capture MABE230; SMN 2 pg/mL, MPs 10 µg/well, Det Ab 100 ng/mL, Cap Ab/MP 25 µg/mg
[10] = target: His-tagged recombinant human SMN protein (ProteinTech, catalog # ag14333) (human) (UniProt Q16637); assay: Erenna sandwich assay, capture MABE230 12.5 µg/mg MPs; Det Ab 1000 ng/mL; SMN 66.67 pg/mL
[11] = target: His-tagged recombinant human SMN protein (ProteinTech, catalog # ag14333) (human) (UniProt Q16637); assay: Erenna sandwich assay, capture MABE230 12.5 µg/mg MPs; Det Ab 500 ng/mL; SMN 200.00 pg/mL
[12] = target: His-tagged recombinant human SMN protein (ProteinTech, catalog # ag14333) (human) (UniProt Q16637); assay: Erenna sandwich assay, capture MABE230; SMN 2 pg/mL, MPs 5 µg/well, Det Ab 1000 ng/mL, Cap Ab/MP 12.5 µg/mg
[13] = target: His-tagged recombinant human SMN protein (ProteinTech, catalog # ag14333) (human) (UniProt Q16637); assay: Erenna sandwich assay, capture MABE230; human CSF sample 1 spiked with recombinant SMN 10.0 pg/mL (endogenous SMN also present)
[14] = target: endogenous SMN protein in human CSF (human) (UniProt Q16637); assay: Erenna sandwich assay, capture MABE230; human CSF sample 3, unspiked (endogenous SMN only)
[15] = target: His-tagged recombinant human SMN protein (ProteinTech, catalog # ag14333) (human) (UniProt Q16637); assay: Erenna sandwich assay, capture MABE230 12.5 µg/mg MPs; Det Ab 500 ng/mL; SMN 3.70 pg/mL
[16] = target: His-tagged recombinant human SMN protein (ProteinTech, catalog # ag14333) (human) (UniProt Q16637); assay: Erenna sandwich assay, capture MABE230; human CSF sample 5 spiked with recombinant SMN 10.0 pg/mL (endogenous SMN also present)
[17] = target: His-tagged recombinant human SMN protein (ProteinTech, catalog # ag14333) (human) (UniProt Q16637); assay: Erenna sandwich assay, capture MABE230 12.5 µg/mg MPs; Det Ab 1000 ng/mL; SMN 0.06 pg/mL
[18] = target: His-tagged recombinant human SMN protein (ProteinTech, catalog # ag14333) (human) (UniProt Q16637); assay: Erenna sandwich assay, capture MABE230; SMN 2 pg/mL, MPs 5 µg/well, Det Ab 500 ng/mL, Cap Ab/MP 12.5 µg/mg
[19] = target: His-tagged recombinant human SMN protein (ProteinTech, catalog # ag14333) (human) (UniProt Q16637); assay: Erenna sandwich assay, capture MABE230; SMN 2 pg/mL, MPs 5 µg/well, Det Ab 50 ng/mL, Cap Ab/MP 25 µg/mg
[20] = target: His-tagged recombinant human SMN protein (ProteinTech, catalog # ag14333) (human) (UniProt Q16637); assay: Erenna sandwich assay, capture MABE230 12.5 µg/mg MPs; Det Ab 500 ng/mL; SMN 0.06 pg/mL
[21] = target: His-tagged recombinant human SMN protein (ProteinTech, catalog # ag14333) (human) (UniProt Q16637); assay: Erenna sandwich assay, capture MABE230 12.5 µg/mg MPs; Det Ab 1000 ng/mL; SMN 1.85 pg/mL
[22] = target: His-tagged recombinant human SMN protein (ProteinTech, catalog # ag14333) (human) (UniProt Q16637); assay: Erenna sandwich assay, capture MABE230; SMN 2 pg/mL, MPs 10 µg/well, Det Ab 500 ng/mL, Cap Ab/MP 25 µg/mg

## ProteinTech anti-SMN2 (catalog #60154-1-Ig) (antibody)
[1]
  detected events (DE) (detected events): 5960
  event photons (EP) (event photons): 1.05e+06
[2]
  detected events (DE) (detected events): 1170
  event photons (EP) (event photons): 171000
[3]
  detected events (DE) (detected events): 13100
  event photons (EP) (event photons): 4.64e+06
[4]
  detected events (DE) (detected events): 967
  event photons (EP) (event photons): 135000
[5]
  detected events (DE) (detected events): 9140
[6]
  detected events (DE) (detected events): 240
[7]
  detected events (DE) (detected events): 9630
[8]
  detected events (DE) (detected events): 1850
  event photons (EP) (event photons): 267000
[9]
  detected events (DE) (detected events): 1130
[10]
  detected events (DE) (detected events): 11500
  event photons (EP) (event photons): 1.06e+07
[11]
  detected events (DE) (detected events): 9460
  event photons (EP) (event photons): 1.86e+07
[12]
  detected events (DE) (detected events): 2590
[13]
  detected events (DE) (detected events): 9730
[14]
  detected events (DE) (detected events): 278
[15]
  detected events (DE) (detected events): 3190
  event photons (EP) (event photons): 497000
[16]
  detected events (DE) (detected events): 9440
[17]
  detected events (DE) (detected events): 125
  event photons (EP) (event photons): 15900
[18]
  detected events (DE) (detected events): 1950
[19]
  detected events (DE) (detected events): 560
[20]
  detected events (DE) (detected events): 91
  event photons (EP) (event photons): 14200
[21]
  detected events (DE) (detected events): 2140
  event photons (EP) (event photons): 312000
[22]
  detected events (DE) (detected events): 2400
